Experimental data taken from patent US20190119377A1.

Tests used:
[1] = molecular target: CD16 on CD16-transfected NFAT-bla Jurkat cells (UniProt P08637); experiment: competition flow cytometry; displacement of AF488-labelled human IgG1 (25 nM) from CD16-transfected NFAT-bla Jurkat cells
[2] = molecular target: human FcRn on FcRn-transfected 293FS cells (293FS+FcRn+β2m (clone #2)) (human) (UniProt P55899); experiment: competition flow cytometry; displacement of AF488-labelled IgG1 (3.33 nM) from human FcRn-transfected 293FS cells, pH 5.5

Sequence of UniProt P08637 (P08637 17-254 limits assumed): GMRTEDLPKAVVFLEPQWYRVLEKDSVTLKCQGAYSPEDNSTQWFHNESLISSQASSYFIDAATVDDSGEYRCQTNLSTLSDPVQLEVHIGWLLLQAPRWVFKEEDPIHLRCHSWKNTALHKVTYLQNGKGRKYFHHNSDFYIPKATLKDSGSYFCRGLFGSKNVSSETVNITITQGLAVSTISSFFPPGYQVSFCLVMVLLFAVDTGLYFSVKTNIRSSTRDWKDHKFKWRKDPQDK

Ki [1]: 225 nM
Ki [2]: 200 nM
Substance: human IgG1 (antibody)
